Source: IntAct's records for PubMed 23937259

target: pp1a_human PPP1CA (UniProt P62136)
Sequence (P62136 whole entry): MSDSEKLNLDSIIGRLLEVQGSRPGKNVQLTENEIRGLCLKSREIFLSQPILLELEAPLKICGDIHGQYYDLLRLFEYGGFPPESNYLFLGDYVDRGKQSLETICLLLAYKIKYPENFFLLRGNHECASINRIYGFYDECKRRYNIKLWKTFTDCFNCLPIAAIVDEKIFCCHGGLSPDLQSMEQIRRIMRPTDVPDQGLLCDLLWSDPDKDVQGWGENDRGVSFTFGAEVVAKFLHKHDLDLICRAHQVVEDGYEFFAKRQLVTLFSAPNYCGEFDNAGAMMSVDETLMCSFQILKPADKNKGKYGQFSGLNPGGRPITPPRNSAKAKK

Effect of a mutation on the interaction, increasing interaction strength:
Leucine-rich repeat serine/threonine-protein kinase 2 (Homo sapiens), Q5S007 N1437H
Leucine-rich repeat serine/threonine-protein kinase 2 (Homo sapiens), Q5S007 R1441G
Leucine-rich repeat serine/threonine-protein kinase 2 (Homo sapiens), Q5S007 S910A;S935A;S955A;S973A
Leucine-rich repeat serine/threonine-protein kinase 2 (Homo sapiens), Q5S007 Y1699C
